Test results reported in patent publication CN110028581A.

Columns and labels:
[1] = biological target: 微囊藻毒素抗体IgG in ascites (腹水)
[2] = biological target: 微囊藻毒素抗体Fab片段 (microcystin antibody Fab fragment)
[3] = biological target: 微囊藻毒素抗体Fab片段 (microcystin antibody Fab fragment); assay: ic-ELISA: free MC-LR (1000 ng/mL dilution) against coated MC-LR-OVA for the Fab

Substance: 微囊藻毒素-LR (microcystin-LR) (peptide)
- 抑制率 (inhibition rate) [1]: 91%
- IC20 [2]: 0.15 ng/mL
- IC50 [2]: 0.56 ng/mL
- IC80 [2]: 2.1 ng/mL
- 抑制率 (inhibition rate) [3]: 99%
